Legend:
[1] = molecular target: Sambucus nigra lectin (Sambucus nigra); test: immunostaining of cells or tissue
[2] = molecular target: Maackia amurensis lectin II (Maackia amurensis); test: immunostaining of cells or tissue

Sequence of Sambucus nigra lectin (Sambucus nigra) (Q41358 29-289 limits assumed, chain 1 of 2): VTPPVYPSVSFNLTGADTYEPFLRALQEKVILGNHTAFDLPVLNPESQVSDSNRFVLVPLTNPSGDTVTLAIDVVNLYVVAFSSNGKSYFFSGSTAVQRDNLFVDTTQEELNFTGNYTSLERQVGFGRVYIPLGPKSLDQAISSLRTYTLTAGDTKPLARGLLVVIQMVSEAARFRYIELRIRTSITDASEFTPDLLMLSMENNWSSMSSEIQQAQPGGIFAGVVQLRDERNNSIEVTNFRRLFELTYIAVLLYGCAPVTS
Sequence of Sambucus nigra lectin (Sambucus nigra) (Q41358 309-570 limits assumed, chain 2 of 2): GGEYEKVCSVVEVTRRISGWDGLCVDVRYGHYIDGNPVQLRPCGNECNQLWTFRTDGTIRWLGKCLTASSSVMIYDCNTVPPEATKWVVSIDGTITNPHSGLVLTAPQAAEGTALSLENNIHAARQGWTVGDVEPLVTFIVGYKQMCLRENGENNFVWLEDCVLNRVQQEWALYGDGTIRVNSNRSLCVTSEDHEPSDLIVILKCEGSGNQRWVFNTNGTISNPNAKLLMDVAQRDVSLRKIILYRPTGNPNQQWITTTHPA

Substance | percent reduction of lectin bound to MDCK cells [1] [%] | percent reduction of lectin bound to MDCK cells [2] [%]
desialylated bovine lactoferrin (natural protein) | 60 | –
native bovine lactoferrin (natural protein) | – | 40

Source: publication PMC8590968
